Source: patent US20180326085A1 (Merck KGaA, published 2018)
Where a chain is given by its changes, count along the chain named.

B1: B10v5x225-L (bispecific antibody, V domains shown)
VL (c-MET arm): EPVLTQPPSVSVAPGETATIPCGGDSLGSKIVHWYQQRPGQAPLLVVYDDAARPSGIPERFSGSKSGTTATLTISSVEAGDEADYFCQVYDYHSDVEVFGGGTKLTVLGQPKAA
VH (c-MET arm): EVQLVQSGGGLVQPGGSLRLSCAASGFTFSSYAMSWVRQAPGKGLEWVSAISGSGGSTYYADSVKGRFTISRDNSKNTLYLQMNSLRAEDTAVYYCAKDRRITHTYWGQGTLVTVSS
VL (EGFR arm): DIQMTQSPSSLSASVGDRVTITCRASQSIGTNIHWYQQKPGKAPKLLIKYASESISGVPSRFSGSGYGTDFTLTISSLQPEDVATYYCQQNNNWPTTFGQGTKVEIK
VH (EGFR arm): EVQLVQSGAEVKKPGASVKVSCKASGFSLTNYGVHWMRQAPGQGLEWIGVIWRGGNTDYNTPFTSRVTITSDKSTSTAYMELSSLRSEDTAVYYCARALTYYDYEFAYWGQGTLVTVSS
notes: c-MET x EGFR SEED bispecific
B2: CS06x225-H (bispecific c-MET x EGFR SEEDbody) (bispecific antibody, V domains shown)
VH 1: QVQLQQSGAEVKKPGSSAKVSCKASGGTFSSNAISWVRQAPGQGLEWMGGIIPIFGTAIYAQKFQGRVTITADESTSTAYMELSSLRSEDTAVYYCARDQRGYYYYYYYGMDVWGQGTTVTVSS
VL 1: QLVLTQSPSVSVAPGKTARITCGGNNIRNVGVHWYQKKPGQAPILVVYDDDDRPSGVPERFSGSNSGNTATLTISRVEAGDEADYYCQVWDSATDQRVFGGGTKLTVLGQPKAG
VH 2: B1 VH (EGFR arm) with R53S, T100D
VL 2: B1 VL (EGFR arm) with N93E, T96N
notes: The rest is a SEEDbody: IgG1 hinge-CH2-SEED CH3 (AG/GA)
B3: B10v5x225-H (bispecific c-MET x EGFR SEEDbody) (bispecific antibody, V domains shown)
VH 1: not shown
VL 1: B1 VL (c-MET arm)
VH 2: B1 VH (EGFR arm) with R53S, T100D
VL 2: B1 VL (EGFR arm) with N93E, T96N
notes: hu225-H); SEEDbody format (IgG1 hinge-CH2-SEED CH3)
B4: oa B10 (antibody, V domains shown)
VH: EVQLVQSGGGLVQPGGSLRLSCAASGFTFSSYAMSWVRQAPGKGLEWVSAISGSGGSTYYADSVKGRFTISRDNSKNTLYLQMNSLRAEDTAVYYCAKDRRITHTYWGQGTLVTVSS
VL: QSVLTQPPSTSGTPGQRVTISCFGSSSNVGVNTVNWYRQLPGTAPKLLIYDNNLRPSGVPERFSGSKSGTSASLAITGLQAEDEGDYYCQSYDSSLSDVVFGGGTKLTVLG
notes: one-armed (monovalent) anti-c-MET SEED molecule; also called one-armed B10
B5: oa B10v5 (antibody, V domains shown)
VH: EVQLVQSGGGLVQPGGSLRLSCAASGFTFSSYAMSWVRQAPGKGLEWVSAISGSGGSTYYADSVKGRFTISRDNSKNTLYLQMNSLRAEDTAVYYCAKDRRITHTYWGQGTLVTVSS
VL: EPVLTQPPSVSVAPGETATIPCGGDSLGSKIVHWYQQRPGQAPLLVVYDDAARPSGIPERFSGSKSGTTATLTISSVEAGDEADYFCQVYDYHSDVEVFGGGTKLTVLG
notes: one-armed (monovalent) anti-c-MET SEED molecule; also called one-armed B10v5
B6: oa CS06 (antibody, V domains shown)
VH: B2 VH 1
VL: QLVLTQSPSVSVAPGKTARITCGGNNIRNVGVHWYQKKPGQAPILVVYDDDDRPSGVPERFSGSNSGNTATLTISRVEAGDEADYYCQVWDSATDQRVFGGGTKLTVLG
notes: one-armed (monovalent) anti-c-MET SEED molecule; also called one-armed CS06
B7: oa 225-H (antibody, V domains shown)
VH: B1 VH (EGFR arm) with R53S, T100D
VL: B1 VL (EGFR arm) with N93E, T96N
notes: one-armed (monovalent) anti-EGFR SEED molecule
B8: oa 425 (antibody, V domains shown)
VH: QVQLVQSGAEVKKPGASVKVSCKASGYTFTSHWMHWVRQAPGQGLEWIGEFNPSNGRTNYNEKFKSKATMTVDTSTNTAYMELSSLRSEDTAVYYCASRDYDYDGRYFDYWGQGTLVTVSS
VL: DIQMTQSPSSLSASVGDRVTITCSASSSVTYMYWYQQKPGKAPKLLIYDTSNLASGVPSRFSGSGSGTDYTFTISSLQPEDIATYYCQQWSSHIFTFGQGTKVEIKR
notes: as for B7

The binders below were run against T1, c-MET and EGFR co-expressed on cells (human, UniProt P08581;P00533) (assay: flow cytometry, A549 cells (c-MET+ EGFR++)).
T1 construct: endogenous receptor on the cell surface; not a complex: two separate receptors on the same cell; used as target only for bispecific c-MET x EGFR molecules, whose cell staining cannot be split between the two arms; also called cells that carry both receptors: NCI-H441, EBC-1, A431, MKN-45, A549, HepG2 (cell line under assay)

| Binder | MFI at 100 nM |
| --- | --- |
| B1 | 249 |
| B2 | 292 |
| B3 | 335 |

What follows are binders tested against T2, c-MET (hepatocyte growth factor receptor) on A549 cells (human, UniProt P08581 25-1390) (assay: flow cytometry, A549 cells (c-MET+ EGFR++)).
T2 construct: whole, on cells; Endogenous receptor of A549 cells; phosphorylation read out in cell lysates; also called HGFR

| Binder | MFI at 100 nM |
| --- | --- |
| B4 | 130 |
| B5 | 91 |
| B6 | 147 |

Each binder was assayed against T3, EGFR (epidermal growth factor receptor) on A549 cells (human, UniProt P00533 25-1210) (assay: flow cytometry, A549 cells (c-MET+ EGFR++)).
T3 construct: whole, on cells; Endogenous receptor of A549 cells; phosphorylation read out in cell lysates

| Binder | MFI at 100 nM |
| --- | --- |
| B7 | 184 |
| B8 | 170 |

What follows are binders tested against T4, c-MET on cells (human, UniProt P08581) (assay: flow cytometry, HepG2 cells (c-MET+ EGFR+)).
T4 construct: endogenous receptor on the cell surface; for A549 cells m4 is used; also called HGFR; on NCI-H441, EBC-1, A431, MKN-45, SK-MEL2 or HepG2 cells (cell line under assay)

| Binder | MFI at 100 nM |
| --- | --- |
| B4 | 69 |
| B5 | 399 |
| B6 | 296 |

These binders were tested against T5, EGFR on cells (human, UniProt P00533) (assay: flow cytometry, HepG2 cells (c-MET+ EGFR+)).
T5 construct: endogenous receptor on the cell surface; for A549 cells m5 is used; also called on NCI-H441, EBC-1, A431, MKN-45, HepG2 or T47D cells (cell line under assay)

| Binder | MFI at 100 nM |
| --- | --- |
| B7 | 53 |
| B8 | 50 |

What follows are binders tested against T1, c-MET and EGFR co-expressed on cells (assay: flow cytometry, HepG2 cells (c-MET+ EGFR+)).

| Binder | MFI at 100 nM |
| --- | --- |
| B1 | 451 |
| B2 | 198 |
| B3 | 352 |

What follows are binders tested against T4, c-MET on cells (assay: flow cytometry, A431 cells (c-MET+ EGFR+++)).

| Binder | MFI at 100 nM |
| --- | --- |
| B4 | 103 |
| B5 | 49 |
| B6 | 37 |

What follows are binders tested against T5, EGFR on cells (assay: flow cytometry, A431 cells (c-MET+ EGFR+++)).

| Binder | MFI at 100 nM |
| --- | --- |
| B7 | 2230 |
| B8 | 1150 |

Each binder was assayed against T1, c-MET and EGFR co-expressed on cells (assay: flow cytometry, A431 cells (c-MET+ EGFR+++)).

| Binder | MFI at 100 nM |
| --- | --- |
| B1 | 847 |
| B2 | 1860 |
| B3 | 1760 |

What follows are binders tested against T4, c-MET on cells (assay: flow cytometry, SK-MEL2 cells (c-MET+ EGFR-)).

| Binder | MFI at 100 nM | binding result |
| --- | --- | --- |
| B7 | 20 | no binding (tested: 100 nM) |
| B1 | 341 | – |
| B2 | 164 | – |
| B3 | 222 | – |
| B4 | 39 | – |
| B8 | 17 | no binding (tested: 100 nM) |
| B5 | 272 | – |
| B6 | 213 | – |

What follows are binders tested against T4, c-MET on cells (assay: flow cytometry, EBC-1 cells (c-MET+++ EGFR++)).

| Binder | MFI at 100 nM |
| --- | --- |
| B4 | 952 |
| B5 | 2310 |
| B6 | 2630 |

What follows are binders tested against T5, EGFR on cells (assay: flow cytometry, EBC-1 cells (c-MET+++ EGFR++)).

| Binder | MFI at 100 nM |
| --- | --- |
| B7 | 287 |
| B8 | 212 |

Each binder was assayed against T1, c-MET and EGFR co-expressed on cells (assay: flow cytometry, EBC-1 cells (c-MET+++ EGFR++)).

| Binder | MFI at 100 nM |
| --- | --- |
| B1 | 2040 |
| B2 | 1560 |
| B3 | 2060 |

These binders were tested against T4, c-MET on cells (assay: flow cytometry, MKN-45 cells (c-MET+++ EGFR++)).

| Binder | MFI at 100 nM |
| --- | --- |
| B4 | 916 |
| B5 | 1500 |
| B6 | 1490 |

The binders below were run against T5, EGFR on cells (assay: flow cytometry, MKN-45 cells (c-MET+++ EGFR++)).

| Binder | MFI at 100 nM |
| --- | --- |
| B7 | 199 |
| B8 | 184 |

These binders were tested against T1, c-MET and EGFR co-expressed on cells (assay: flow cytometry, MKN-45 cells (c-MET+++ EGFR++)).

| Binder | MFI at 100 nM |
| --- | --- |
| B1 | 1220 |
| B2 | 1550 |
| B3 | 1330 |

Each binder was assayed against T6, EGFR (soluble extracellular domain) (human, UniProt P00533) (assay: BLI (Octet), antibody on anti-human Fc biosensors, soluble EGFR ECD as analyte).
T6 construct: soluble extracellular domain; also called Human EGFR extracellular domain, R&D Systems 1095-ER

| Binder | Kd [nM] | koff [s⁻¹] | kon [M⁻¹ s⁻¹] |
| --- | --- | --- | --- |
| B7 | 0.14 | 0.00049 | 3.6e+06 |
| B2 | 0.12 | 0.00039 | 3.3e+06 |
| B3 | 0.15 | 0.00053 | 3.5e+06 |
| B8 | 22 | 0.012 | 530000 |

These binders were tested against T7, biotinylated recombinant human c-MET ECD (HGFR extracellular domain) (human, UniProt P08581 25-932, biotinylated (sites not given)) (assay: BLI (Octet), antibody on anti-human Fc biosensors, soluble c-MET ECD as analyte).
T7 construct: extracellular domain; also called human c-MET ECD-His

| Binder | Kd [nM] | koff [s⁻¹] | kon [M⁻¹ s⁻¹] |
| --- | --- | --- | --- |
| B2 | 0.12 | 0.00039 | 3.3e+06 |
| B3 | 0.36 | 0.00015 | 400000 |
| B4 | 12 | 0.0012 | 100000 |
| B5 | 0.38 | 0.00016 | 400000 |
| B6 | 0.19 | 0.00021 | 1.1e+06 |

What follows are binders tested against T4, c-MET on cells (assay: flow cytometry on NCI-H441 cells (express c-MET and EGFR), FITC anti-human Fc, n=3).

| Binder | EC50 (read off the curve) [nM] |
| --- | --- |
| B5 | ~1 |
| B6 | ~0.3 |

The binders below were run against T5, EGFR on cells in the same assay as above.

| Binder | EC50 (read off the curve) [nM] |
| --- | --- |
| B7 | ~0.4 |

The binders below were run against T1, c-MET and EGFR co-expressed on cells in the same assay as above.

| Binder | EC50 (read off the curve) [nM] |
| --- | --- |
| B2 | ~0.3 |
| B3 | ~0.5 |

Each binder was assayed against T5, EGFR on cells (assay: flow cytometry at 300 nM on mixed EBC-1 and T47D (low EGFR, no c-MET) cells, anti-human Fc detection; T47D population).

| Binder | binding result |
| --- | --- |
| B1 | binds |

Each binder was assayed against T7, biotinylated recombinant human c-MET … (assay: HGF competition ELISA: HGF on the plate, biotinylated c-MET ECD pre-incubated with the antibody; blocked ligand HGF).

| Binder | IC50 (read off the curve) [nM] |
| --- | --- |
| B5 | ~6 |
| B6 | ~8 |
